Test results taken from patent US20090035818A1 (NATIONAL UNIVERSITY OF CORPORATION HIROSHIMA UNIVERSITY, published 2009).

What was measured:
[1] = molecular target: T1, fetuin (type III, calf serum) (calf, UniProt P12763 19-359); test: cell-based or functional assay
T1 sequence (looked up): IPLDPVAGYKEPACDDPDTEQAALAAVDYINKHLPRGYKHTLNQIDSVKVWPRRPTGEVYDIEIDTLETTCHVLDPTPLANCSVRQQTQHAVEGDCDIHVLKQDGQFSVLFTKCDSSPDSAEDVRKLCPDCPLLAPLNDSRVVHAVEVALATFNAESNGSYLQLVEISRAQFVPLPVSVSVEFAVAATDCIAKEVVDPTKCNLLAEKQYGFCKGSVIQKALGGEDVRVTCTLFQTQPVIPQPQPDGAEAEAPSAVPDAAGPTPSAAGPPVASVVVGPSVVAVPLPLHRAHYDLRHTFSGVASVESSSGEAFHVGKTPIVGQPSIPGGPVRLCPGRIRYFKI

asialofetuin = molecular target: T2, asialofetuin (calf, UniProt P12763 19-359, sugar chains desialylated); test: cell-based or functional assay
T2 sequence (looked up): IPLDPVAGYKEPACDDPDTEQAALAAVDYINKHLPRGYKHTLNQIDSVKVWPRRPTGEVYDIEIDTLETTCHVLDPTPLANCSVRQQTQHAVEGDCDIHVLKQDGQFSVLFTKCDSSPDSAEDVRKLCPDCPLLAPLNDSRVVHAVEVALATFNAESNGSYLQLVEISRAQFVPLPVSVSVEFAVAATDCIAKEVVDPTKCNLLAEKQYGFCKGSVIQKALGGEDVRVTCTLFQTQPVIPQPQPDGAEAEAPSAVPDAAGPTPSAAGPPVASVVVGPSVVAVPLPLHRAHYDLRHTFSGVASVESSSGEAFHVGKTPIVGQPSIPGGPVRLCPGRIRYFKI

asialomucin = asialomucin (bovine); test: cell-based or functional assay
transferrin (human) = transferrin (human) (human, UniProt P02787 20-698); test: cell-based or functional assay
asialotransferrin = asialotransferrin (human, UniProt P02787 20-698, sugar chains desialylated by dilute acid treatment; only complex-type sugar chain); test: cell-based or functional assay
[2] = molecular target: mucin (bovine submaxillary gland) (bovine); test: cell-based or functional assay
[3] = molecular target: T3, chicken egg yolk antibody (chicken IgY antibody) (chicken); test: SPR (Biacore 2000), chicken IgY on CM5 chip, lectin as analyte
T3 construct: Purified from egg yolk with the Eggcellent Chicken IgY Purification Kit (Pierce)
Description: Assessment was made as to affinity of the different types of lectins and chicken egg yolk antibody (chicken IgY antibody). Briefly, using Biacore 2000 (BIACORE) that employs the principle of surface plasmon resonance method (hereinafter, “SPR method”), chicken egg yolk antibodies (chicken IgY antibodies) were immobilized as ligands on a sensor chip, and measurements were made according to manuals using each type of lectin solution as an analyte. The SPR technique allows for measurement of specific interactions between biomolecules both quickly and quantitatively, without labeling the biomolecules. According to this technique, the ligands are immobilized on a surface of the sensor chip, which is then supplemented with a solution of substance (analyte) that acts on the ligand. Slight changes in mass caused by the binding and dissociation of the molecules are then detected as changes in SPR signals. The mass change is represented by resonance unit (RU). One thousand RU is equivalent to a change in reflection angle of 0.1° caused by resonance, and it means that the analyte has bound to the ligand at 1 ng/mm². The surface of the sensor chip is coated with dextran, and the ligands are immobilized primarily via carboxyl groups that have been introduced into the dextran.
Affinity between each glycoprotein and each lectin was analyzed by SPR technique. Prior to analysis, preliminary analyses were made to assess analysis methods. […] An analysis program was created using “Customized Application” according to the manual, and a subtraction function was used in which subtraction was made from flow cells that had glycoproteins immobilized thereon, from among four flow cells in the sensor chip. […] Under this analysis program, each analyte (lectin) solution was flown on the sensor chip at a flow rate of 30 μl/min for 3 minutes, and buffer was flown for 3 minutes to measure the amount of lectin that had bonded/dissociated.

Chain of transferrin (human) (P02787 20-698 limits assumed): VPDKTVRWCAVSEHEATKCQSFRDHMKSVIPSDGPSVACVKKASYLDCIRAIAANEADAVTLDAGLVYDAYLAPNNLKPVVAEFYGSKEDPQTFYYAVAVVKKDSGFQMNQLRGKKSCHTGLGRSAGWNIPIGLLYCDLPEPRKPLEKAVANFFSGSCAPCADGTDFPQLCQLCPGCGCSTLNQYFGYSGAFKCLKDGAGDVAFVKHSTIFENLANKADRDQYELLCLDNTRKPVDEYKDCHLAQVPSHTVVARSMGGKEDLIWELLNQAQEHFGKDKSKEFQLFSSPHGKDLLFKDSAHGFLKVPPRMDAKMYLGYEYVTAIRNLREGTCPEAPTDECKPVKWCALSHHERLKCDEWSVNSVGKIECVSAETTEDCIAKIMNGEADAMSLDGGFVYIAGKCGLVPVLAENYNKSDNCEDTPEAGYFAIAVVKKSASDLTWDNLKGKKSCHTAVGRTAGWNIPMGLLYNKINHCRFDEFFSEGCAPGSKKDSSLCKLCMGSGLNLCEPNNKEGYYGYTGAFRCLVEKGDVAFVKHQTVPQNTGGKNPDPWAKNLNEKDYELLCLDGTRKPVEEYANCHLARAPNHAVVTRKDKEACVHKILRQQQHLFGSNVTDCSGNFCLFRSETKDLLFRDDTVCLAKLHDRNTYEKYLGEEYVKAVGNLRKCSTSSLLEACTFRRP
Chain of asialotransferrin (P02787 20-698 limits assumed): as above

B1: BML-17 (other)
chain: VIYQDPVTSDMFAKIPMPGHRGPWYVCHSSGDWSRNEPVFGRCAIDAKGMVEAYFPYGGKDIKWPSRWSAVITTGVYWGKYNDWKQADCNGGQQVVDGGRGAVTVRMDGISECKGWTTGKSSHNEVWFGCNGKEVGSWISDTPASDVFPICQEYGAAVKIVHMGRAFN
notes: also called polypeptide isolated from Bryopsis maxima; BML-17 column (immobilised form)
- Minimum inhibitory concentration (hemagglutination inhibition, trypsin-treated rabbit erythrocytes) [1]: 1000 µg/mL
- Minimum inhibitory concentration (hemagglutination inhibition, trypsin-treated rabbit erythrocytes) (asialofetuin): 500 µg/mL
- Minimum inhibitory concentration (hemagglutination inhibition, trypsin-treated rabbit erythrocytes) (asialomucin): 250 µg/mL
- Minimum inhibitory concentration (hemagglutination inhibition, trypsin-treated rabbit erythrocytes) (transferrin (human)): 2000 µg/mL
- Minimum inhibitory concentration (hemagglutination inhibition, trypsin-treated rabbit erythrocytes) (asialotransferrin): 1000 µg/mL
- Minimum inhibitory concentration (hemagglutination inhibition, trypsin-treated rabbit erythrocytes) [2]: 250 µg/mL
- Ka [3]: 8.36e+07 M⁻¹
- Kd [3]: 12 nM
- koff [3]: 0.00586 s⁻¹
- kon [3]: 490000 M⁻¹ s⁻¹

B2: Eucheuma serra-derived lectin ESA-2 (other)
chain: GRYTVQNQWGGSSAPWNDAGLWILGSRGNQNVMAVDVNSSDGGANLNGTMTYSGEGPIGFKGARRGESNVYDVENQWGGSSAPWHAGGQFVIGSRSGQGVLAVNITSSDGGKTLTGTMTYEREGPIGFKGTQSGGDTYNVENQWGGSSAPWNKAGIWALGDRSGQAMIAMDVSSSDGGKTLEGTMQYKGEGPIGFRGKLSGANNYSVENQWGGSSAPWNAAGDWLIGDRHNQNITAVKVSSDNDGKNLDGTCTYEREGPIGFKGVATS
- Ka [3]: 7.73e+07 M⁻¹
- Kd [3]: 12.9 nM
- koff [3]: 0.00455 s⁻¹
- kon [3]: 352000 M⁻¹ s⁻¹
